According to publication PMC2692654:
Read-outs that look alike come from different tables or passages of the source.

T1: M.HhaI methyltransferase (UniProt P05102 1-327)
T1 sequence: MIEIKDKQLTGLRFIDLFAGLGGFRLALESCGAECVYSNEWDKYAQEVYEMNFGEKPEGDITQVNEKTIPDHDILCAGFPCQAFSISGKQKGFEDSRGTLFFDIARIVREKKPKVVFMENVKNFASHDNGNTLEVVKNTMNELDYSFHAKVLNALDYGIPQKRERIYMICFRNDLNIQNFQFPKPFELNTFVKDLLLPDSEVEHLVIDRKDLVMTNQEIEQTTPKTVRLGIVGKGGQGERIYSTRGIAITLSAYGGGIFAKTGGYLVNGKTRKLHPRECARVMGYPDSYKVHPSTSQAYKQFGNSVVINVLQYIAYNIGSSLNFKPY


Key:
M.HhaI methyltransferase [1] = target: T1, M.HhaI methyltransferase; test: electrochemical E-DNA sensor
M.HhaI methyltransferase [2] = target: T1, M.HhaI methyltransferase; test: electrochemical E-DNA sensor; remark: listed apart in the source

Binder	binding result (M.HhaI methyltransferase [1])	binding result (M.HhaI methyltransferase [2])
CGGGCTATATAAGGGGCGTTTTCTTATATAG (structured_DNA, 5' HS-(CH2)6 thiol; internal T10 C5-linked methylene blue) [TATA probe]	no binding	
AAGACGAGCGCATGTTTATGCGCTC (structured_DNA, 5' HS-(CH2)6 thiol; internal T16 C5-linked methylene blue) [M.HhaI probe]		binds
